In this test the target is p53 (UniProt P04637). The test is described as follows: cell-based or functional assay.
p53, sequence (P04637 whole entry): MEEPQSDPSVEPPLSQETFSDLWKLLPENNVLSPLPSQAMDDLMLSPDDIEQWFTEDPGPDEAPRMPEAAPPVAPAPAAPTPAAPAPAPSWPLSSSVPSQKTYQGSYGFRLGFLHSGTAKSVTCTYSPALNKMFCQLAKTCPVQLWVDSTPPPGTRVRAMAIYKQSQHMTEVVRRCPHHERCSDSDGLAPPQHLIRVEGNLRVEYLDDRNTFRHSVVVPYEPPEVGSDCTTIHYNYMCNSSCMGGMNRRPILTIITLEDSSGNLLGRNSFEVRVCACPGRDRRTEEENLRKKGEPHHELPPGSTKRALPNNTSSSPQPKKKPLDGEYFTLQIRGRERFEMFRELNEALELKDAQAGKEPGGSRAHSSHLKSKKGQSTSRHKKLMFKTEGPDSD

On to “Kaposi's sarcoma-associated herpesvirus latency-associated nuclear antigen 2 (LANA2) (from UniProt F5HIC6 1-566)”, for which the inhibition of doxorubicin-induced (endogenous p53) activation of the pG13-Luc reporter in U2OS cells came out at 57%; the inhibition of p53 activation of the pG13-Luc reporter in SAOS-2 cells is 87%; the subdiploid (apoptotic) fraction of SAOS-2 cells expressing p53 with LANA2, propidium iodide flow cytometry was 10.8%.
